2 proteins from PMC13598245, “A complex of MAST1 and 14-3-3η regulates Tau phosphorylation in the developing cortex” (Proceedings of the National Academy of Sciences of the …, 2026) can be followed below.

The data set deals with the molecule itself. Briefly: cross-linking + other: mass photometry; complex stabilised by glutaraldehyde cross-linking, then mass photometry (25 to 50 nM, 50 mM HEPES pH 7.4, 150 mM NaCl, 1 mM TCEP).

B1: GST-tagged 14-3-3η (coexpressed with MAST1^DK) (natural protein, UniProt Q04917 1-246, looked up)
chain: MGDREQLLQRARLAEQAERYDDMASAMKAVTELNEPLSNEDRNLLSVAYKNVVGARRSSWRVISSIEQKTMADGNEKKLEKVKAYREKIEKELETVCNDVLSLLDKFLIKNCNDFQYESKVFYLKMKGDYYRYLAEVASGEKKNSVVEASEAAYKEAFEISKEQMQPTHPIRLGLALNFSVFYYEIQNAPEQACLLAKQAFDDAIAELDTLNEDSYKDSTLIMQLLRDNLTLWTSDQQDEEAGEGN
notes: 14-3-3 protein eta
Take B1: the “stoichiometry N” value was determined as 2.

B2: 14-3-3η (purified, recombinant) (natural protein, UniProt Q04917 1-246, looked up)
chain: B1 chain
notes: 14-3-3 protein eta; also called purified 14-3-3η; source: purified recombinant
In the case of B2, the “stoichiometry N” value turned out to be 2.
